These results are taken from US20240343791A1.

Assay [1] addresses human VEGFA (Cat. No. Z03073, Genscript) (human) (UniProt P15692). The experiment in a line: competition ELISA, Eylea coated as competitor, 5 nM VEGFA dimer pre-incubated with Conbercept.
Assay [2] shares this target. The experiment in a line: competition ELISA: plate coated with Eylea, Conbercept in dilution series pre-incubated with 5 nM VEGFA, VEGFA bound to Eylea detected. The sheet prints ng/mL, the text prints nM. (In general: In an ELISA, binding on a coated surface is turned into a signal by an enzyme label.)
The target is the same in assay [3]. The experiment in a line: ELISA, plate coated with VEGFA, detection with HRP anti-human IgG.
For assay [4] the target is unchanged.
Assay [5] has the same target. The experiment in a line: SPR (Biacore), protein captured on protein A chip, VEGFA as analyte, 25 C.

Sequence of Eylea (Fc fusion) (chain): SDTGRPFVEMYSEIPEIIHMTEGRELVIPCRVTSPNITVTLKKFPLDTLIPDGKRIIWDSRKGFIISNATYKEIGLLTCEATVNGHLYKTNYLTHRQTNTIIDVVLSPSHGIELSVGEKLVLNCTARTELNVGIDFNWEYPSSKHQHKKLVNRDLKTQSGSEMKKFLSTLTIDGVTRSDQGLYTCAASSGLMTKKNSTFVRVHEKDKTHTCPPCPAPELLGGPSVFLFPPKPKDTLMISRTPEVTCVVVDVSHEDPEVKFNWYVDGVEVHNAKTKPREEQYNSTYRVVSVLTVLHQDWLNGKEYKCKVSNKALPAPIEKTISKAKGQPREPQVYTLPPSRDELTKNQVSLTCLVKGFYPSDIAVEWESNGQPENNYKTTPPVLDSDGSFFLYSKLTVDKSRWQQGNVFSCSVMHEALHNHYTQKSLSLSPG
Sequence of human VEGFA (Cat. No. Z03073, Genscript) (human) (P15692 other isoform, or with tags, fused parts or gaps limits assumed): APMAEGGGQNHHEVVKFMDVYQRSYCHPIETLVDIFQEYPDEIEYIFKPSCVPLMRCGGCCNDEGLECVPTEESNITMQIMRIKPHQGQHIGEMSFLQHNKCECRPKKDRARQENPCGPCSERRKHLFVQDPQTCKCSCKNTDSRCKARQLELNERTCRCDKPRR
Sequence of Conbercept eye injection (Fc fusion) (chain): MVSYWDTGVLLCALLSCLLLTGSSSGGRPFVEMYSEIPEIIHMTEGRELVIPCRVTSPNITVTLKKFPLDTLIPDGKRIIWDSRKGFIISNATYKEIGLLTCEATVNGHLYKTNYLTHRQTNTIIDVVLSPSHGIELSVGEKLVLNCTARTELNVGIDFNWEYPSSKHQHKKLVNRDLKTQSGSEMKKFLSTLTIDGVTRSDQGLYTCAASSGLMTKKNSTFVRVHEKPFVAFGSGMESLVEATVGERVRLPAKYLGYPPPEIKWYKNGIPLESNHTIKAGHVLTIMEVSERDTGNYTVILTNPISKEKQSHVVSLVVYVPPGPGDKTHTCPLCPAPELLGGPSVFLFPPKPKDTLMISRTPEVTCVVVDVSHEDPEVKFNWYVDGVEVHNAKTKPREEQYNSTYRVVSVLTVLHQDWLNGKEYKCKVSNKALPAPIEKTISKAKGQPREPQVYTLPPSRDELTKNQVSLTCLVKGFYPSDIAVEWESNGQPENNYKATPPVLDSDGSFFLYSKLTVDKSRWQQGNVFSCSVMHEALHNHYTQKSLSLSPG

For orientation: IC50 means the concentration at which inhibition is half-maximal. The low end stands for higher potency, the high end for lower potency. On to Conbercept eye injection (Fc fusion), for which the IC50 turned out to be 16.9 nM in assay [1] and 0.0169 µg/mL in assay [2].
For orientation: EC50 (read off the curve) means the concentration that produces a half-maximal response. Read a low EC50 (read off the curve) as greater potency. A word on the Kd: it is a measure of binding affinity in units of concentration. High values mean weaker binding, low ones tighter binding. In assay [3], Eylea (Fc fusion) yielded an EC50 (read off the curve) of 0.07 µg/mL. This substance registered an IC50 (inhibition of VEGFA-induced HUVEC proliferation, CellTiter-Glo) in assay [4] of 0.0045 µg/mL. The same substance displayed a Kd in assay [5] of 0.0361 nM.
